First the molecules themselves.
B1: Protein PML (Homo sapiens), P29590-1 (parent)
chain: MEPAPARSPRPQQDPARPQEPTMPPPETPSEGRQPSPSPSPTERAPASEEEFQFLRCQQCQAEAKCPKLLPCLHTLCSGCLEASGMQCPICQAPWPLGADTPALDNVFFESLQRRLSVYRQIVDAQAVCTRCKESADFWCFECEQLLCAKCFEAHQWFLKHEARPLAELRNQSVREFLDGTRKTNNIFCSNPNHRTPTLTSIYCRGCSKPLCCSCALLDSSHSELKCDISAEIQQRQEELDAMTQALQEQDSAFGAVHAQMHAAVGQLGRARAETEELIRERVRQVVAHVRAQERELLEAVDARYQRDYEEMASRLGRLDAVLQRIRTGSALVQRMKCYASDQEVLDMHGFLRQALCRLRQEEPQSLQAAVRTDGFDEFKVRLQDLSSCITQGKDAAVSKKASPEAASTPRDPIDVDLPEEAERVKAQVQALGLAEAQPMAVVQSVPGAHPVPVYAFSIKGPSYGEDVSNTTTAQKRKCSQTQCPRKVIKMESEEGKEARLARSSPEQPRPSTSKAVSPPHLDGPPSPRSPVIGSEVFLPNSNHVASGAGEAEERVVVISSSEDSDAENSSSRELDDSSSESSDLQLEGPSTLRVLDENLADPQAEDRPLVFFDLKIDNETQKISQLAAVNRESKFRVVIQPEAFFSIYSKAVSLEVGLQHFLSFLSSMRRPILACYKLWGPGLPNFFRALEDINRLWEFQEAISGFLAALPLIRERVPGASSFKLKNLAQTYLARNMSERSAMAAVLAMRDLCRLLEVSPGPQLAQHVYPFSSLQCFASLQPLVQAAVLPRAEARLLALHNVSFMELLSAHRRDRQGGLKKYSRYLSLQTTTLPPAQPAFNLQALGTYFEGLLEGPALARAEGVSTPLAGRGLAERASQQS
partner: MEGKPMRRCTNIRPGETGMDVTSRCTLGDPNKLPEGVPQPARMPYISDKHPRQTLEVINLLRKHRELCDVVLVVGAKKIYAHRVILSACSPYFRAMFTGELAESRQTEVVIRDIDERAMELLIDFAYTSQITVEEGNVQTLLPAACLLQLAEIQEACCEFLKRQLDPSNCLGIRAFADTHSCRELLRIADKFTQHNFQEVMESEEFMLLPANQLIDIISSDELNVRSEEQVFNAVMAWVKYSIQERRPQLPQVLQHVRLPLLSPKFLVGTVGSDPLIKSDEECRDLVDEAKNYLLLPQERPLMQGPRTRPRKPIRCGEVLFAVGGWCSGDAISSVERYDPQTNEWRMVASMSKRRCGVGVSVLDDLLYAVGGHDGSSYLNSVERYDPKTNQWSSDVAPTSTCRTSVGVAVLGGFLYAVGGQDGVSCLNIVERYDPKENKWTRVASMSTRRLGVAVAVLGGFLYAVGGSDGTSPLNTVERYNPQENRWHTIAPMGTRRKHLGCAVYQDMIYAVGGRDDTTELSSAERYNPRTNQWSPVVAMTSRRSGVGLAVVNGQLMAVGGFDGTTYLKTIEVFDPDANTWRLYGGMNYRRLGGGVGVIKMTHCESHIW

The variants in the first assay derive from B1. Conditions: with klh20_human KLHL20, Q9Y2M5.
With S518A, the “effect of a mutation on the interaction” value is reported as “disrupting interaction”.

Variants of B1 are the subject of a further assay. Conditions: with klh20_human KLHL20, Q9Y2M5. This is another data set of the same source.
With S518A, the “effect of a mutation on the interaction” value is “disrupting interaction”.
